Laboratory results as given in US20020164759A1 (UNIVERSITY OF GEORGIA RESEARCH FOUNDATION, published 2002).

Assays:
[1] = molecular target: Porphyromonas gingivalis dipeptidylpeptidase-7 (DPP-7), purified from strain HG66 (Porphyromonas gingivalis) (UniProt B2RKV3); experiment: cell-based or functional assay
[2] = molecular target: T1, Porphyromonas gingivalis dipeptidylpeptidase-7 (DPP-7), purified from strain HG66 (Porphyromonas gingivalis, UniProt B2RKV3 24-712); experiment: cell-based or functional assay
T1 sequence: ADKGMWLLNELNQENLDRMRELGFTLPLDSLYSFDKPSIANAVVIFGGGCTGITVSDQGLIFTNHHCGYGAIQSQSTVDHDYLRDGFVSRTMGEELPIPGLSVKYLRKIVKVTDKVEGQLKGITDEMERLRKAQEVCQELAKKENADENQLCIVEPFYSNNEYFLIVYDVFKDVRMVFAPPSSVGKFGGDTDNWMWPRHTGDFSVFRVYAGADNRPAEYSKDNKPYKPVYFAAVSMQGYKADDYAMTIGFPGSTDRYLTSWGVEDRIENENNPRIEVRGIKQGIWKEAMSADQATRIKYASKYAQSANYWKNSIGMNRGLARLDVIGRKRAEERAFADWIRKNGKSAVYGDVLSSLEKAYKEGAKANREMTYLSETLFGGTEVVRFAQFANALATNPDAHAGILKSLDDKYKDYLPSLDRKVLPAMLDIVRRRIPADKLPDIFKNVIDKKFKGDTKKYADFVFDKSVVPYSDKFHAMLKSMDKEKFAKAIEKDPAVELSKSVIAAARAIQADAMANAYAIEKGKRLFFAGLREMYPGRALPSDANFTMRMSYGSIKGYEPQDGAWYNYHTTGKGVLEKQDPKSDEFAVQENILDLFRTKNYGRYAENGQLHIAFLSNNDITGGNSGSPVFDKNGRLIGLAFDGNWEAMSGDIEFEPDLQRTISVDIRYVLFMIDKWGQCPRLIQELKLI

[3] = molecular target: carboxymethylated lysosyme
[4] = molecular target: T2, Trp-Ala-Gly-Gly-Asp-Ala-Ser-Gly-Glu (SEQ ID NO:10)
T2 chain: WAGGDASGE

[5] = molecular target: T3, Phe-Leu-Arg-Glu-Pro-Val-Ile-Phe-Leu (SEQ ID NO:13)
T3 chain: FLREPVIFL

[6] = molecular target: T4, Lys-Ile-Ala-Gly-Tyr-His-Leu-Glu-Leu (SEQ ID NO:12)
T4 chain: KIAGYHLEL

[7] = molecular target: T5, Trp-His-Trp-Leu-Glu-Leu-Lys-Pro-Gly-Glu-Pro-Met-Tyr (SEQ ID NO:14)
T5 chain: WHWLELKPGEPMY

[8] = molecular target: T6, Ser-Pro-Tyr-Ser-Ser-Glu-Thr-Thr (SEQ ID NO:15)
T6 chain: SPYSSETT

[9] = molecular target: T7, Ile-Ala-Arg-Arg-His-Pro-Tyr-Phe-Leu (SEQ ID NO:11)
T7 chain: IARRHPYFL

[10] = molecular target: T8, Ala-Pro-Val-Arg-Ser-Leu (SEQ ID NO:16)
T8 chain: APVRSL

[11] = molecular target: T9, Gln-Lys-Gln-Met-Ser-Asp-Arg-Arg-Glu (SEQ ID NO:17)
T9 chain: QKQMSDRRE

Aprotinin (from UniProt P00974 36-93)
% of residual activity of DPP-7 against H-Ala-Phe-pNA after preincubation with 0.5 mg/ml inhibitor [1]: 128%

RF [Arg-Phe]
% of residual activity of DPP-7 against H-Ala-Phe-pNA after preincubation with 100 mM compound [2]: 69%

GA [Gly-Ala]
% of residual activity of DPP-7 against H-Ala-Phe-pNA after preincubation with 100 mM compound [2]: 102%

B1: Porphyromonas gingivalis dipeptidylpeptidase-7 (DPP-7), purified from strain HG66 (protein)
chain: ADKGMWLLNELNQENLDRMRELGFTLPLDSLYSFDKPSIANAVVIFGGGCTGITVSDQGLIFTNHHCGYGAIQSQSTVDHDYLRDGFVSRTMGEELPIPGLSVKYLRKIVKVTDKVEGQLKGITDEMERLRKAQEVCQELAKKENADENQLCIVEPFYSNNEYFLIVYDVFKDVRMVFAPPSSVGKFGGDTDNWMWPRHTGDFSVFRVYAGADNRPAEYSKDNKPYKPVYFAAVSMQGYKADDYAMTIGFPGSTDRYLTSWGVEDRIENENNPRIEVRGIKQGIWKEAMSADQATRIKYASKYAQSANYWKNSIGMNRGLARLDVIGRKRAEERAFADWIRKNGKSAVYGDVLSSLEKAYKEGAKANREMTYLSETLFGGTEVVRFAQFANALATNPDAHAGILKSLDDKYKDYLPSLDRKVLPAMLDIVRRRIPADKLPDIFKNVIDKKFKGDTKKYADFVFDKSVVPYSDKFHAMLKSMDKEKFAKAIEKDPAVELSKSVIAAARAIQADAMANAYAIEKGKRLFFAGLREMYPGRALPSDANFTMRMSYGSIKGYEPQDGAWYNYHTTGKGVLEKQDPKSDEFAVQENILDLFRTKNYGRYAENGQLHIAFLSNNDITGGNSGSPVFDKNGRLIGLAFDGNWEAMSGDIEFEPDLQRTISVDIRYVLFMIDKWGQCPRLIQELKLI
endopeptidase activity [3]: did not show any endopeptidase activity
Peptides cleaved (hydrolysis products separated by reverse-phase HPLC, mass spectrometry) [4]: Trp-Ala-↓-Gly-Gly-Asp-Ala-Ser-Gly-Glu
Peptides cleaved (hydrolysis products separated by reverse-phase HPLC, mass spectrometry) [5]: Phe-Leu-↓-Arg-Glu-Pro-Val-Ile-Phe-Leu
endopeptidase activity (insulin β chain): did not show any endopeptidase activity
endopeptidase activity (type I collagen): did not show any endopeptidase activity
Peptides cleaved (hydrolysis products separated by reverse-phase HPLC, mass spectrometry) [6]: Lys-Ile-↓-Ala-Gly-Tyr-His-Leu-Glu-Leu
Peptides not cleaved (reverse-phase HPLC, mass spectrometry) [7]: Peptides not cleaved
Peptides not cleaved (reverse-phase HPLC, mass spectrometry) [8]: Peptides not cleaved
Peptides cleaved (hydrolysis products separated by reverse-phase HPLC, mass spectrometry) [9]: Ile-Ala-↓-Arg-Arg-His-Pro-Tyr-Phe-Leu
endopeptidase activity (gelatin): did not show any endopeptidase activity
Peptides not cleaved (reverse-phase HPLC, mass spectrometry) [10]: Peptides not cleaved
Peptides not cleaved (reverse-phase HPLC, mass spectrometry) [11]: Peptides not cleaved
endopeptidase activity (azocazein): did not show any endopeptidase activity

AG [Ala-Gly]
% of residual activity of DPP-7 against H-Ala-Phe-pNA after preincubation with 100 mM compound [2]: 96%
